Measured values from the RNAGym collection of RNA variant scans (doi:10.1073/pnas.2313332121).

B1: TPR t1 (parent)
chain: GACCAAUCUGCCCUCAGAGCUCGAGAACAUCUUCGGAUGCAGAGGAGGCAGGCUUCGGUGGCGCGAUAGCGCCAACGUCCUCAACCUCCAAUGCAUCCCACCACAUGAUGAUGCCUGAAGAGCCUUGGUUUUUUG

Variants of: B1
Assay: polymerase ribozyme fitness, log enrichment relative to wild type (log ratio); higher = more active; in vitro selection for triplet polymerase activity
Outline: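 A single round of triplicate in vitro selection, including frozen incubation at −7 °C, was applied to PCR-built, transcribed mutant libraries of each subunit of a heterodimeric triplet polymerase ribozyme. Illumina sequencing of input and output libraries retained genotypes with ≥10 input reads and ≥1 read per output. Fitness is the base-2 logarithm of genotype enrichment divided by wild-type enrichment, from inverse-variance-weighted replicate averages.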

Variant | polymerase ribozyme fitness (log ratio)
GACCAAUCUGCCCUCAGAGCUCGAGAACAUCUUCGGAUGCAGAGGAGGCAGACUUCGGUGGCGCGAUAGCGCCAACGUCCUCAACCCCCAAUGCAUCCCACCACAUGAUGAUGCCUCAAGAGCCUUGGUUUUUUG [G52A U87C G117C] | -3.1
GACCAAUCUGCCCUCAGAGCUCGAGAACAUCUUCGGAUGCAGAGGAGGCAGACUUCGGUGGCGCGAUAGCGCCAACGUCCUCAACCUCCAAUGCAUCCCACCACAUGAUGAUGCCCGAAGAGCCUUGGUUUUUUG [G52A U116C] | -0.22
GACCAAUCUGCCCUCAGAGCUCGAGAACAUCUUCGGAUGCAGAGGAGGCAGACUUCGGUGGCGCGAUAGCGCCAACGUCCUCAACCUCCAAUGCAUCCCACCACAUGAUGAUGCCUGAAGAGCCUUGGUCUUUUG [G52A U130C] | -0.159
GACCAAUCUGCCCUCAGAGCUCGAGAACAUCUUCGGAUGCAGAGGAGGCAGCCUUGGGUGGCGCGAUAGCUCCAACGUCCUCAACCUCCAAUGCAUCCCACCACAUGAUGAUGCCUGAAGAGCCUUGGUUUUUUG [G52C C56G G71U] | -3.4
GACCAAUCUGCCCUCAGAGCUCGAGAACAUCUUCGGAUGCAGAGGAGGCAGCCUUUGGUGGCGCGAUAGCGCCAACGUCCUUACCCUCCAAUGCAUCCCACCACAUGAUGAUGCCUGAAGAGCCUUGGUUUUUUG [G52C C56U C82U A84C] | 0.272
GACCAAUCUGCCCUCAGAGCUCGAGAACAUCUUCGGAUGCAGAGGAGGCAGCCUUUGGUGGCGCGAUAGCGCCAACGGCCUCAACCUCCAAUGCAUCCCACCACAUGAUGAUGCCUGAAGAGCCUUGCUUUUUUG [G52C C56U U78G G128C] | -2.87
GACCAAUCUGCCCUCAGAGCUCGAGAACAUCUUCGGAUGCAGAGGAGGCAGCCUUCGGUGGCGCGAUAGAGCCAACGUCCUCAACCUCCAAUGCAUCCCACCACAUGAUGAUGCCUCAAGAGCCUUGGUUUUUUG [G52C C70A G117C] | -5.92
GACCAAUCUGCCCUCAGAGCUCGAGAACAUCUUCGGAUGCAGAGGAGGCAGCCUUCGGUGGCGCGAUAGUGCCAACGUCCUCAACCUCCAAUGCAUCCCACCACAAGAUGAUGCCUGAAGAGCCUUGGUUUUUUG [G52C C70U U106A] | -1.07
GACCAAUCUGCCCUCAGAGCUCGAGAACAUCUUCGGAUGCAGAGGAGGCAGCCUUCGGUGGCGCGAUAGCGGCAACGUCCUCAACCUCCAAUGCAUCCCACCAUAUGAUGAUGCCUGAAGAGCCUUGGUUUUUUG [G52C C72G C104U] | -0.739
GACCAAUCUGCCCUCAGAGCUCGAGAACAUCUUCGGAUGCAGAGGAGGCAGCCUUCGGUGGCGCGAUAGCGUCAACGUCCUCAACUUCUAAUGCAUCCCACCACUUGAUGAUGCCUGAAGAGCCUUGGUUUUUUG [G52C C72U C86U C89U A105U] | -4.77
GACCAAUCUGCCCUCAGAGCUCGAGAACAUCUUCGGAUGCAGAGGAGGCAGCCUUCGGUGGCGCGAUAGCGCCAACGUCCUCAACCUCGAAUGCAUCCCACCACAUGAUGAUGCCUGAAGAGCCUUCGUUUUUUG [G52C C89G G127C] | -2.37
GACCAAUCUGCCCUCAGAGCUCGAGAACAUCUUCGGAUGCAGAGGAGGCAGCCUUCGGUGGCGCGAUAGCGCCAACGUCCUCAACCUCCAAUGCAUCCCACCACAUGAUGAUGUCUGAAGAGCCUUUGUUUUAUG [G52C C114U G127U U133A] | -6.16
GACCAAUCUGCCCUCAGAGCUCGAGAACAUCUUCGGAUGCAGAGGAGGCAGCCUUCGGUGGCGCGAUAGCCCCAACGUCCUCAACCUCCAAUGCAUCCCACUAAAUGAUGAUGCCUGAAGAGCCUUGGUUUUUUG [G52C G71C C102U C104A] | -3.27
GACCAAUCUGCCCUCAGAGCUCGAGAACAUCUUCGGAUGCAGAGGAGGCAGCCUUCGGUGGCGCGAUAGCUCUAACGUCCUCAACCUCCAAUGCAUCCCACCAUAUGAUGAUGCCUGAACAGCCUUGGUUUUUUG [G52C G71U C73U C104U G120C] | -2.42
GACCAAUCUGCCCUCAGAGCUCGAGAACAUCUUCGGAUGCAGAGGAGGCAGCCUUCGGUGGCGCGAUAGCGCCAACGUCCUCAACCUCCAAUACAUCCCACCACAUGAUGAUACCUGAGGAGCCUUGGUUUUUUG [G52C G93A G113A A119G] | -1.29
GACCAAUCUGCCCUCAGAGCUCGAGAACAUCUUCGGAUGCAGAGGAGGCAGCCUUCGGUGGCGCGAUAGCGCCAACGUCCUCAACCUCCAAUGCAUCCCACCACAUGAUGAUGCCUGAACAGCCUUGGUUUUUUG [G52C G120C] | -0.0985
GACCAAUCUGCCCUCAGAGCUCGAGAACAUCUUCGGAUGCAGAGGAGGCAGCCUUCGGUGGCGCGAUAGCGCCAACGUCCUCAACCUCCAAUGCAUCCCACCACAUGAUGAUGCCUGAAUAGCCUUGGUUUUUUG [G52C G120U] | -0.715
GACCAAUCUGCCCUCAGAGCUCGAGAACAUCUUCGGAUGCAGAGGAGGCAGCCUUCGGUGGCGCGAUAGCGCCAACGUCCUCAACCUCCAAUGCAUCCCACCACAUGAUGAUGCCUGAAGAGCCUUUGUUUUUUG [G52C G127U] | -1.33
GACCAAUCUGCCCUCAGAGCUCGAGAACAUCUUCGGAUGCAGAGGAGGCAGCCUUCGGCGGCGCGAUAGCGCCAACGUCCUCAACCUCCAAUGCAUCCCACCACAUGAUGAUGCCUGAAUAGCCCUGGUUUUUUG [G52C U59C G120U U125C] | -0.0154
GACCAAUCUGCCCUCAGAGCUCGAGAACAUCUUCGGAUGCAGAGGAGGCAGCCUUCGGUGGCGCGAUAGCGCCAACGUCCUCAACCUCCAAUGCAUCCCACCACAUGAUGAUGCCCGAAGAGCCUUGGUUUUUUG [G52C U116C] | -1.72
GACCAAUCUGCCCUCAGAGCUCGAGAACAUCUUCGGAUGCAGAGGAGGCAGUCUUCGGUGGCGCGAUGGCGCCAACCUCCUCAACCUCCAAUGCAUCCCACCACAUGAUGAUGCCUGAAGAGCCUUGGUUUUUUG [G52U A68G G77C] | -4.82

Variant | polymerase ribozyme fitness (log ratio)
GACCAAUCUGCCCUCAGAGCUCGAGAACAUCUUCGGAUGCAGAGGAGGCAGUCUUCGGUGGCGCGAUUGCGCCAACGUCCUCCACCUCCAAUGCAUCCCAGCACAUGAUGAUGCUUGAAGAGCCUUGGUUUUUUG [G52U A68U A83C C101G C115U] | -7.12
GACCAAUCUGCCCUCAGAGCUCGAGAACAUCUUCGGAUGCAGAGGAGGCAGUCUUCGGUGGCGCGAUAGCGCCAACGUCCUCUACCUCCAAUGCAUCUCACCACAUGAUGAUGCCUGAAGAGCCUUGGUUUUUUG [G52U A83U C98U] | -2.49
GACCAAUCUGCCCUCAGAGCUCGAGAACAUCUUCGGAUGCAGAGGAGGCAGUCUUCGGUGGCGCGAUAGCGCCAACGUCCUCAACCUCCAAUGCGUCCCACCACAUGAUGAUGCCUGAAGAGCCUUGGUUUUUUG [G52U A95G] | -0.694
GACCAAUCUGCCCUCAGAGCUCGAGAACAUCUUCGGAUGCAGAGGAGGCAGUCUUCGGUGGCGCGAUAGCGCCAACGUCCUCAACCUCCAAUGCAUCCCACCACGUGAUGAUGCCUGAAGAGCCUUGGUUUUUUG [G52U A105G] | -3.17
GACCAAUCUGCCCUCAGAGCUCGAGAACAUCUUCGGAUGCAGAGGAGGCAGUCUUCGGUGGCGCGAUAGCGCCAACGUCCUCAACCUCCAAUGCAUCCCACCACAUGAUGAUGCCUGAAGCGCCUUGGUUUUUUG [G52U A121C] | 1.02
GACCAAUCUGCCCUCAGAGCUCGAGAACAUCUUCGGAUGCAGAGGAGGCAGUCUUAGGUGGCGCGUUAGCGCCAACGUCCUCAACCUCCAAUGCAUCCCACAACAUGAUGAUGCCUGAAGAGCCUUGGUUUUUUG [G52U C56A A66U C102A] | -6.29
GACCAAUCUGCCCUCAGAGCUCGAGAACAUCUUCGGAUGCAGAGGAGGCAGUCUUUGGUGGUGCGAUAGCGCCAACGUCCUCAACCUCCAAUGCAUCCCACCACAUGAUGAUGCCUGAAGAGCCUUGGUAUUUUG [G52U C56U C62U U130A] | -1.37
GACCAAUCUGCCCUCAGAGCUCGAGAACAUCUUCGGAUGCAGAGGAGGCAGUCUUCGGUGGUGCGAUAGCGCCAACGUCCUAAACCUCCAAUGCAUCCCACUACAUGAUGAUGCCUGAAGAGGCUUGGUUUUUUG [G52U C62U C82A C102U C123G] | -2.65
GACCAAUCUGCCCUCAGAGCUCGAGAACAUCUUCGGAUGCAGAGGAGGCAGUCUUCGGUGGCGUGAUAGCGCCAACGUCCUGAACCUCCAAUGCAUCCCACCACAUGAUGAUGCCUGAAGAGCCUUGGUUUUUUG [G52U C64U C82G] | -2.19
GACCAAUCUGCCCUCAGAGCUCGAGAACAUCUUCGGAUGCAGAGGAGGCAGUCUUCGGUGGCGCGAUAGUGCCAACGACCUCAACCUCCAAUGCAUCCCAGCACAUGAUGAUGCCUGAAGAGCCUUGAUUUUUUG [G52U C70U U78A C101G G128A] | -3.89
GACCAAUCUGCCCUCAGAGCUCGAGAACAUCUUCGGAUGCAGAGGAGGCAGUCUUCGGUGGCGCGAUAGCGGCAACGUCCUCAACCUCCAAUGCAUCCCACCACAUGAUGAUGCCUGAAGAGCCUUGGUUUUUUG [G52U C72G] | 0.452
GACCAAUCUGCCCUCAGAGCUCGAGAACAUCUUCGGAUGCAGAGGAGGCAGUCUUCGGUGGCGCGAUAGCGUCAACGUCUUCAACCUCCAAUGCAUCUCACCACAUGAUGAUGCCUGAAGAGCCUUGGUUUUUUG [G52U C72U C80U C98U] | -3.28
GACCAAUCUGCCCUCAGAGCUCGAGAACAUCUUCGGAUGCAGAGGAGGCAGUCUUCGGUGGCGCGAUAGCGUCAACGCCCUCAACCUCCAAUGCAUCCCACCACAUGAUGAUGCCUGAAGCGCCUUGGUUUUUUG [G52U C72U U78C A121C] | 1.26
GACCAAUCUGCCCUCAGAGCUCGAGAACAUCUUCGGAUGCAGAGGAGGCAGUCUUCGGUGGCGCGAUAGCGCGAACGUCCUCAACCUCCAAUGCAUCCCACCACAUGAUGAUGCCUGAAGAGCCUUGGUUUUUUG [G52U C73G] | -1.11
GACCAAUCUGCCCUCAGAGCUCGAGAACAUCUUCGGAUGCAGAGGAGGCAGUCUUCGGUGGCGCGAUAGCGCGAACGUCCUCAACCUCCAACGCAUCCCACCAUAUGAUGAUGCCCGAAGAGCCUUGGAUUUUUG [G52U C73G U92C C104U U116C U129A] | -4.98
GACCAAUCUGCCCUCAGAGCUCGAGAACAUCUUCGGAUGCAGAGGAGGCAGUCUUCGGUGGCGCGAUAGCGCGAACGUCCUCAACCUCCAAUGCAUCCCACCACAUGAUGAAGCCUGAAAAGCAUAGGUUUUUUG [G52U C73G U112A G120A C124A U126A] | -0.0832
GACCAAUCUGCCCUCAGAGCUCGAGAACAUCUUCGGAUGCAGAGGAGGCAGUCUUCGGUGGCGCGAUAGCGCUAACGUCCUCAACCUCCAAUGCAGCCCACCACAUGAUGAUGCCUGAAGGGCCUUGGUUUUUUG [G52U C73U U96G A121G] | 1.57
GACCAAUCUGCCCUCAGAGCUCGAGAACAUCUUCGGAUGCAGAGGAGGCAGUCUUCGGUGGCGCGAUAGCGCUAACGUCCUCAACCUCCAAUGCAUCCCACCACAUGAUGAUGCCUGAAGAGCCUUGGCUUUUUG [G52U C73U U129C] | -1.39
GACCAAUCUGCCCUCAGAGCUCGAGAACAUCUUCGGAUGCAGAGGAGGCAGUCUUCGGUGGCGCGAUAGCGCCAAAGUCCUCAACCUCCAAUGCAUCCCACCACUUGAUGAUGCCUGAAGAGCCUUGGUUUUUUG [G52U C76A A105U] | -3.02
GACCAAUCUGCCCUCAGAGCUCGAGAACAUCUUCGGAUGCAGAGGAGGCAGUCUUCGGUGGCGCGAUAGCGCCAACGUCCUAUACCUCCAAUGCAUCCCACCACAUGAUGAUGCCUGAAGAGCCUUCGUUUUUUG [G52U C82A A83U G127C] | -2.33
GACCAAUCUGCCCUCAGAGCUCGAGAACAUCUUCGGAUGCAGAGGAGGCAGUCUUCGGUGGCGCGAUAGCGCCAACGUCCUCAACCUUCAAUGCAUCACACCACAUGAUGAUGCCUGAAUAGCCUUGGUUUUUUG [G52U C88U C98A G120U] | -5.88
